Results taken from US20260242735A1 (UNIVERSIT T BASEL, published 2026).

B1: Refmab #3 (antibody, human IgG1, V domains shown)
VH: QVQLVQSGAEVKKPGSSVKVSCKASGYTFTDYNMHWVRQAPGQGLEWIGYIYPYNGGTGYNQKFKSKATITADESTNTAYMELSSLRSEDTAVYYCARGRPAMDYWGQGTLVTVSS
VL: DIQMTQSPSSLSASVGDRVTITCRASESVDNYGISFMNWFQQKPGKAPKLLIYAASNQGSGVPSRFSGSGSGTDFTLTISSLQPDDFATYYCQQSKEVPWTFGQGTKVEIK
notes: Tested in IgG format; human IgG1 Fc silent (PG-LALA)
B2: Refmab #2 (antibody, human IgG1, V domains shown)
VH: QVQLVQSGAEVKKPGSSVKVSCKASGGTFSDYAISWVRQAPGQGLEWMGRIIPILGVADYAQKFQGRVTITADKSTRTAYMELSSLRSEDTAVYYCARNWADAFDIWGQGTMVTVSS
VL: DIQLTQSPSSLSASVGDRVTITCRASQGISSVLAWYQQKPGKAPKLLIYDASSLESGVPSRFSGSGSGTDFTLTISSLQPEDFATYYCQQFDSSITFGQGTKLEIK
notes: as for B1
B3: Refmab #1 (antibody, human IgG1, V domains shown)
VH: EVQLVQSGAEVKKPGSSVKVSCKASGYTITDSNIHWVRQAPGQSLEWIGYIYPYNGGTDYNQKFKNRATLTVDNPTNTAYMELSSLRSEDTAFYYCVNGNPWLAYWGQGTLVTVSS
VL: DIQLTQSPSTLSASVGDRVTITCRASESLDNYGIRFLTWFQQKPGKAPKLLMYAASNQGSGVPSRFSGSGSGTEFTLTISSLQPDDFATYYCQQTKEVPWSFGQGTKVEVK
notes: Tested in IgG format; human IgG1 (Absolute Antibody hP67.6, Cat. No. Ab00283-10.0); also called hP67.6
B4: Refmab #4 (antibody, human IgG1, V domains shown)
VH: QVQLVQSGAEVKKPGESVKVSCKASGYTFTNYGMNWVKQAPGQGLEWMGWINTYTGEPTYADKFQGRVTMTTDTSTSTAYMEIRNLGGDDTAVYYCARWSWSDGYYVYFDYWGQGTSVTVSS
VL: DIVMTQSPDSLTVSLGERTTINCKSSQSVLDSSTNKNSLAWYQQKPGQPPKLLLSWASTRESGIPDRFSGSGSGTDFTLTIDSPQPEDSATYYCQQSAHFPITFGQGTRLEIK
notes: as for B1

Experiments:
Assay in all cases: flow cytometry, mutant on cells, IgG
human CD33 N20S = human CD33 N20S (human, UniProt P20138 18-364)
Sequence of human CD33 N20S (P20138 18-364 N20S limits assumed): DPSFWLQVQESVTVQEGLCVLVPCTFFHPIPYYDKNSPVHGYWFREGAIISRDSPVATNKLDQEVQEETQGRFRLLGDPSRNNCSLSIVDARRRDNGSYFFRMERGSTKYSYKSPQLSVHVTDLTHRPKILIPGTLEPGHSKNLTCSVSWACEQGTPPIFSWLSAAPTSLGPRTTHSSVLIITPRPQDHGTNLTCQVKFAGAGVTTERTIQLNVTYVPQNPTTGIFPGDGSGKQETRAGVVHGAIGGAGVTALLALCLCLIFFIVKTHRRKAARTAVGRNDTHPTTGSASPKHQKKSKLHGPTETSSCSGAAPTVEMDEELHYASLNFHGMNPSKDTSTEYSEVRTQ
Description: (§1) An alanine scan on human CD33 was performed to the determine the residues on CD33 that are involved in binding to the antibodies investigated. […] Briefly, a mutation library of CD33 was created by high-throughput, site-directed mutagenesis. Each residue was individually mutated to alanine, with alanine codons mutated to serine. The mutant library was arrayed in 384-well microplates and transiently transfected into HEK293-T. Following transfection, cells were incubated with the indicated antibodies (IgG or Fab) at concentrations pre-determined using an independent immunofluorescence titration curve on wild type CD33. […] Binding of each antibody to each mutant clone was determined in duplicates. For each point, background fluorescence was subtracted from the raw data, which were then normalized to antibody reactivity with wild type CD33.
(§2) Antibodies were screened for binding to the human CD33 variants in IgG format. […] For each mutation, background fluorescence was subtracted from the raw data, which were then normalized to antibody reactivity with wild-type CD33.

human CD33 T42N = human CD33 T42N (human, UniProt P20138 18-364)
Sequence of human CD33 T42N (P20138 18-364 T42N limits assumed): as the sequence (P20138 18-364 N20S limits assumed) above, with S3N, T25N counted along it
Description: as §1, §2

human CD33 F21I = human CD33 F21I (human, UniProt P20138 18-364)
Sequence of human CD33 F21I (P20138 18-364 F21I limits assumed): as the sequence (P20138 18-364 N20S limits assumed) above, with S3N, F4I counted along it
Description: as §1, §2

human CD33 I47S = human CD33 I47S (human, UniProt P20138 18-364)
Sequence of human CD33 I47S (P20138 18-364 I47S limits assumed): as the sequence (P20138 18-364 N20S limits assumed) above, with S3N, I30S counted along it
Description: as §1, §2

human CD33 W22G = human CD33 W22G (human, UniProt P20138 18-364)
Sequence of human CD33 W22G (P20138 18-364 W22G limits assumed): as the sequence (P20138 18-364 N20S limits assumed) above, with S3N, W5G counted along it
Description: as §1, §2

human CD33 D18N = human CD33 D18N (human, UniProt P20138 19-364)
Sequence of human CD33 D18N (P20138 18-364 D18N limits assumed): as the sequence (P20138 18-364 N20S limits assumed) above, with D1N, S3N counted along it
Description: as §1, §2

human CD33 Q24T = human CD33 Q24T (human, UniProt P20138 18-364)
Sequence of human CD33 Q24T (P20138 18-364 Q24T limits assumed): as the sequence (P20138 18-364 N20S limits assumed) above, with S3N, Q7T counted along it
Description: as §1, §2

human CD33 F44I = human CD33 F44I (human, UniProt P20138 18-364)
Sequence of human CD33 F44I (P20138 18-364 F44I limits assumed): as the sequence (P20138 18-364 N20S limits assumed) above, with S3N, F27I counted along it
Description: as §1, §2

human CD33 W22S = human CD33 W22S (human, UniProt P20138 18-364)
Sequence of human CD33 W22S (P20138 18-364 W22S limits assumed): as the sequence (P20138 18-364 N20S limits assumed) above, with S3N, W5S counted along it
Description: as §1, §2

human CD33 V25M = human CD33 V25M (human, UniProt P20138 18-364)
Sequence of human CD33 V25M (P20138 18-364 V25M limits assumed): as the sequence (P20138 18-364 N20S limits assumed) above, with S3N, V8M counted along it
Description: as §1, §2

human CD33 V25I = human CD33 V25I (human, UniProt P20138 18-364)
Sequence of human CD33 V25I (P20138 18-364 V25I limits assumed): as the sequence (P20138 18-364 N20S limits assumed) above, with S3N, V8I counted along it
Description: as §1, §2

human CD33 Q24L = human CD33 Q24L (human, UniProt P20138 18-364)
Sequence of human CD33 Q24L (P20138 18-364 Q24L limits assumed): as the sequence (P20138 18-364 N20S limits assumed) above, with S3N, Q7L counted along it
Description: as §1, §2

human CD33 N20G = human CD33 N20G (human, UniProt P20138 18-364)
Sequence of human CD33 N20G (P20138 18-364 N20G limits assumed): as the sequence (P20138 18-364 N20S limits assumed) above, with S3G counted along it
Description: as §1, §2

human CD33 N20Y = human CD33 N20Y (human, UniProt P20138 18-364)
Sequence of human CD33 N20Y (P20138 18-364 N20Y limits assumed): as the sequence (P20138 18-364 N20S limits assumed) above, with S3Y counted along it
Description: as §1, §2

human CD33 P46H = human CD33 P46H (human, UniProt P20138 18-364)
Sequence of human CD33 P46H (P20138 18-364 P46H limits assumed): as the sequence (P20138 18-364 N20S limits assumed) above, with S3N, P29H counted along it
Description: as §1, §2

human CD33 I47V = human CD33 I47V (human, UniProt P20138 18-364)
Sequence of human CD33 I47V (P20138 18-364 I47V limits assumed): as the sequence (P20138 18-364 N20S limits assumed) above, with S3N, I30V counted along it
Description: as §1, §2

human CD33 P46R = human CD33 P46R (human, UniProt P20138 18-364)
Sequence of human CD33 P46R (P20138 18-364 P46R limits assumed): as the sequence (P20138 18-364 N20S limits assumed) above, with S3N, P29R counted along it
Description: as §1, §2

human CD33 F43V = human CD33 F43V (human, UniProt P20138 18-364)
Sequence of human CD33 F43V (P20138 18-364 F43V limits assumed): as the sequence (P20138 18-364 N20S limits assumed) above, with S3N, F26V counted along it
Description: as §1, §2

human CD33 D18R = human CD33 D18R (human, UniProt P20138 19-364)
Sequence of human CD33 D18R (P20138 18-364 D18R limits assumed): as the sequence (P20138 18-364 N20S limits assumed) above, with D1R, S3N counted along it
Description: as §1, §2

Binder	Mean % WT Binding (human CD33 N20S)	Mean % WT Binding (human CD33 T42N)	Mean % WT Binding (human CD33 F21I)	Mean % WT Binding (human CD33 I47S)	Mean % WT Binding (human CD33 W22G)	Mean % WT Binding (human CD33 D18N)	Mean % WT Binding (human CD33 Q24T)	Mean % WT Binding (human CD33 F44I)	Mean % WT Binding (human CD33 W22S)	Mean % WT Binding (human CD33 V25M)	Mean % WT Binding (human CD33 V25I)	Mean % WT Binding (human CD33 Q24L)	Mean % WT Binding (human CD33 N20G)	Mean % WT Binding (human CD33 N20Y)	Mean % WT Binding (human CD33 P46H)	Mean % WT Binding (human CD33 I47V)	Mean % WT Binding (human CD33 P46R)	Mean % WT Binding (human CD33 F43V)	Mean % WT Binding (human CD33 D18R)
B1	4.6 % WT binding	95.5 % WT binding	0.5 % WT binding	94.9 % WT binding	9 % WT binding	71.5 % WT binding	3.9 % WT binding	101 % WT binding	1.4 % WT binding	90.4 % WT binding	113 % WT binding	11.8 % WT binding	3.6 % WT binding	0.6 % WT binding	0.5 % WT binding	100 % WT binding	1 % WT binding	101 % WT binding	5.3 % WT binding
B2	124 % WT binding	98.2 % WT binding	86.8 % WT binding	3.4 % WT binding	113 % WT binding	59.2 % WT binding	95.2 % WT binding	0.4 % WT binding	105 % WT binding	83 % WT binding	114 % WT binding	102 % WT binding	105 % WT binding	34.7 % WT binding	95.1 % WT binding	97.2 % WT binding	64.7 % WT binding	24.5 % WT binding	96.5 % WT binding
B3	45.5 % WT binding	99.4 % WT binding	1.9 % WT binding	105 % WT binding	89.6 % WT binding	69.6 % WT binding	81.4 % WT binding	100 % WT binding	74.3 % WT binding	97.3 % WT binding	113 % WT binding	80.9 % WT binding	5.1 % WT binding	0.4 % WT binding	0.7 % WT binding	112 % WT binding	1 % WT binding	101 % WT binding	60.6 % WT binding
B4	91.7 % WT binding	101 % WT binding	96.3 % WT binding	90.1 % WT binding	105 % WT binding	76 % WT binding	97.2 % WT binding	98.7 % WT binding	103 % WT binding	81.1 % WT binding	104 % WT binding	97 % WT binding	103 % WT binding	25.7 % WT binding	69.5 % WT binding	99 % WT binding	106 % WT binding	81.5 % WT binding	100 % WT binding
